Data reported in article PMC11214836, “ILF3 safeguards telomeres from aberrant homologous recombination as a telomeric R-loop reader”.

Biological target: T1, ILF3-GFP full-length (UniProt Q12906 1-894)
T1 sequence: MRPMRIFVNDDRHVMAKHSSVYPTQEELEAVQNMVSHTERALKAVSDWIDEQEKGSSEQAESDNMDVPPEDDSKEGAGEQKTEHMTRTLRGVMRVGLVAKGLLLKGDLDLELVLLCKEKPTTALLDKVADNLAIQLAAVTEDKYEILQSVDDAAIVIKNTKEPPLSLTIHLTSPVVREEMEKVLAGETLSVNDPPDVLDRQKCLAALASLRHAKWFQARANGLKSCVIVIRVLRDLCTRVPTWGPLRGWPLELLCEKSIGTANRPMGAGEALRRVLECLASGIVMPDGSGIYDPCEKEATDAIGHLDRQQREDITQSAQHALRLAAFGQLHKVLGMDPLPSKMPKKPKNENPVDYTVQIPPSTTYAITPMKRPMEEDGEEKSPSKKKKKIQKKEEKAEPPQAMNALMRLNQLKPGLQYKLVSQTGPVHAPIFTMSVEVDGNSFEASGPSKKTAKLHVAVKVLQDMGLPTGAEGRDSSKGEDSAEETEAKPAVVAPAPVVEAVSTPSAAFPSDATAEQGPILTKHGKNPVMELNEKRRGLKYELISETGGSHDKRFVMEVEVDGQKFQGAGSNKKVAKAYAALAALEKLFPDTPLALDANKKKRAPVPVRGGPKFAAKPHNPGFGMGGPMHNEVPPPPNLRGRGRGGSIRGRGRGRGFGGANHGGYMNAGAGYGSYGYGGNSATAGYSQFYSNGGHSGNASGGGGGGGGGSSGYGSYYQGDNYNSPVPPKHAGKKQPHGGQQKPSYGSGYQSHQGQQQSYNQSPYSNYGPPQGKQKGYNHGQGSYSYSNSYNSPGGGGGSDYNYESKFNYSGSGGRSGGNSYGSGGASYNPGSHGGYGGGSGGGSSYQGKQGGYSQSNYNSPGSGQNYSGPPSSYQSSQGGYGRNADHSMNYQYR
Experiment: MST; MST: 50 nM His-ILF3-GFP, oligo 0.4 nM-5 uM, 25 mM Tris-HCl pH 7.5, 100 mM NaCl, room temperature
Conditions: protein: recombinant, tags: His, blunt

B1: mutTERRA RNA:DNA hybrid (UUAGCC) (DNA:RNA)
RNA: AGGGUUAGCCUUAGCCUUAGCC
DNA: GGCTAAGGCTAAGGCTAACCCT
  binding result: no binding
